Test results reported in patent US20220000998A1 (STRIKE PHARMA, published 2022).

B1: X-SM083-bi-12 (bispecific antibody)
heavy: EVQLLESGGGLVQPGGSLRLSCAASGFTFSSYAMSWVRQAPGKGLEWVSGIGGSSSYTSYADSVKGRFTISRDNSKNTLYLQMNSLRAEDTAVYYCARYYSYHMDYWGQGTLVTVSSASTKGPSVFPLAPSSRSTSESTAALGCLVKDYFPEPVTVSWNSGALTSGVHTFPAVLQSSGLYSLSSVVTVPSSNFGTQTYTCNVDHKPSNTKVDKTVERKCCVECPPCPAPPVAGPSVFLFPPKPKDTLMISRTPEVTCVVVDVSHEDPEVQFNWYVDGVEVHNAKTKPREEQFNSTFRVVSVLTVVHQDWLNGKEYKCKVSNKGLPAPIEKTISKTKGQPREPQVYTLPPSREEMTKNQVSLTCLVKGFYPSDIAVEWESNGQPENNYKTTPPMLDSDGSFFLYSKLTVDKSRWQQGNVFSCSVMHEALHNHYTQKSLSLSPGKGGGGSGGGGSQVQLQQPGAELVMPGASVNLSCKASGYTFTDYWMHWVKQRPGQGLEWIGEIDPSDNFSNLNQNFRGKATLTVDKSSRTAFLQLSSLTSEDSAVYYCAVEDYWGQGTTLTVSSGGGGSGGGGSGGGGSGGGGSDIVMTQATPSVLVTPGEAVSISCRASRSLLHSNGITYLYWFLQRPGQSPQVLIYRMSNLVSGVPDRFSGSGSGTAFTLRISRVEAEDVGVYYCMQHLEFPYTFGGGTKLEIK
light: DIQMTQSPSSLSASVGDHVTITCRASQSISSYLNWYQQKPGKAPKLLIYAASSLQSGVPSRFSGSGSGTDFTLTISSLQPEDFATYYCQQYGSAPPTFGQGTKLEIK
B2: X-SM083-bi-9 (bispecific antibody)
heavy: not shown
light: B1 light

Molecular target: UU-30
Test: cell-based or functional assay

| Binder | t1/2 (min) of UU-30 in mouse plasma (LC-MS/MS) [min] |
| --- | --- |
| B1 | 424 |
| B2 | 1340 |
